# T1: HDX_E1+E2 CD73 chimera (human; chicken, UniProt P21589 27-553)
# T1 chain: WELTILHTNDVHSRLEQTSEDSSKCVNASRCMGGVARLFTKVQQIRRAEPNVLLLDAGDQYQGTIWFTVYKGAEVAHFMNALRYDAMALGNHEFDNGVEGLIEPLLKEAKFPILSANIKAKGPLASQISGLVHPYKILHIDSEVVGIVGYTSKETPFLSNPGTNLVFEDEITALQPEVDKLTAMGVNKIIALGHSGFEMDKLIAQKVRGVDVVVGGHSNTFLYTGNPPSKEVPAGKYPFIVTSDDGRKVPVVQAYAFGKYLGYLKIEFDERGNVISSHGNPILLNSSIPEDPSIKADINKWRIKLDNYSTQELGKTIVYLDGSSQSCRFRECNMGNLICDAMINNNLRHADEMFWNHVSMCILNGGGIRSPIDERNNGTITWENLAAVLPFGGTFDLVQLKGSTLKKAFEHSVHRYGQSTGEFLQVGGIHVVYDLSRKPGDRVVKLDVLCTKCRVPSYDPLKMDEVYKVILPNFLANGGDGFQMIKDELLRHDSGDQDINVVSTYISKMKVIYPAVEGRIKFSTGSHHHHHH
# T2: HDX_E2 CD73 chimera (human; chicken, UniProt P21589 27-553)
# T2 construct: also called KO_182-187
# T2 chain: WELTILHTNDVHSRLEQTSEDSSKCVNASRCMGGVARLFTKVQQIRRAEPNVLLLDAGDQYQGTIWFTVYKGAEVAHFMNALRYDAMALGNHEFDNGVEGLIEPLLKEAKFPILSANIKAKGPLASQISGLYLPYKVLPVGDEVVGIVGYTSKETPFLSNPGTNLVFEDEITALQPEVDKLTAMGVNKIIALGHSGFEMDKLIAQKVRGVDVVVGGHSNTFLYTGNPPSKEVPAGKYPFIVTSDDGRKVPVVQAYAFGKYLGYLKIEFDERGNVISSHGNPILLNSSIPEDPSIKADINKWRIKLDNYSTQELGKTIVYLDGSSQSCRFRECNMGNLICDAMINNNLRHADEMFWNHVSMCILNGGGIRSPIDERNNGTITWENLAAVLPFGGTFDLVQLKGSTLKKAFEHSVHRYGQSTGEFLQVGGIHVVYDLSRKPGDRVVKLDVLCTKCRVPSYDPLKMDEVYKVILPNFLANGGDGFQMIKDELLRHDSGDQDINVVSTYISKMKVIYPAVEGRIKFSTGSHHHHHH
# T3: Human CD73 on cells (MDA-MB-231, Jurkat CD73 knock-in, NCI-H322) (human, UniProt P21589 27-549)
# T3 sequence: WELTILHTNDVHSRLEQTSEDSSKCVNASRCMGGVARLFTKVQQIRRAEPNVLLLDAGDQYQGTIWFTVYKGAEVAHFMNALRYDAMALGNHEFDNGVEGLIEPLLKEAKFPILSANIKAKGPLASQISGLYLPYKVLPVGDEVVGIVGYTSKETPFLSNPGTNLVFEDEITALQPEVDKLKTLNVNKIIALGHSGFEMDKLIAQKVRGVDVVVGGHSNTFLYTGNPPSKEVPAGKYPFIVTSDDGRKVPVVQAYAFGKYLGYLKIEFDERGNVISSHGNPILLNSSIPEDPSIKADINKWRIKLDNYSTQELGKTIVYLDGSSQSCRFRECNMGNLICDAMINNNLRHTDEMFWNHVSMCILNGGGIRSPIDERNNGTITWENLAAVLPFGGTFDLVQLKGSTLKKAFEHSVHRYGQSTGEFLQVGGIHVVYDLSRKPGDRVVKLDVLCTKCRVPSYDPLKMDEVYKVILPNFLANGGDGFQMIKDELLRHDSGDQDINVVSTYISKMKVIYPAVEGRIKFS
# T4: Murine CD73 on cells (4T1, Jurkat mCD73 knock-in) (murine, UniProt Q61503 29-551)
# T4 sequence (looked up): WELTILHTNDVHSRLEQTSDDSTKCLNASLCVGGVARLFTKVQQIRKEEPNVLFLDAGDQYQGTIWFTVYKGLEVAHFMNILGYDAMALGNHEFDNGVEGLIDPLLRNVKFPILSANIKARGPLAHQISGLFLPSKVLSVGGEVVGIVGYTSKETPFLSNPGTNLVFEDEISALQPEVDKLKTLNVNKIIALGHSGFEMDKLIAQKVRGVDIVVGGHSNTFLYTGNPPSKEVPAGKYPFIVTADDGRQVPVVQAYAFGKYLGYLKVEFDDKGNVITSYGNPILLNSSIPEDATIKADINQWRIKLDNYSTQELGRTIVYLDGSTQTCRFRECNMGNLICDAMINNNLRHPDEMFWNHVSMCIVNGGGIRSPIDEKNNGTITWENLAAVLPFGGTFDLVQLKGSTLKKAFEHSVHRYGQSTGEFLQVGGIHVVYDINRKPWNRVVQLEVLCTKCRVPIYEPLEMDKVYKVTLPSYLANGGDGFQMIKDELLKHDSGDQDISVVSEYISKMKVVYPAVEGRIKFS
# Assays:
# [1] = molecular target: T1, HDX_E1+E2 CD73 chimera; test: SPR (ProteOn), CD73 variant immobilized; 2:1 fit
# Method: (§1) Binding of MEDI9447 to wild-type and mutant CD73 proteins was measured by surface plasmon resonance (SPR) using a ProteOn instrument (BioRad). CD73 crude cell supernatant protein samples were diluted to 3 µg/ml in PBS, 0.005% Tween-20, pH 7.4 (BioRad) and immobilized to ~400 RU on a HTG tris-NTA sensor chip (BioRad) pre-activated with 10 mM NiSO₄, 10 mM MES, pH 6.0 (BioRad). An equivalently diluted crude cell supernatant sample from non-transfected cells was included as a reference channel control. Sensorgrams were recorded by flowing two-fold dilutions of MEDI9447 prepared in PBS, 0.005% Tween-20, pH 7.4, ranging from 5 nM to 0.31 nM. […] Antibody binding was measured at a flow rate of 100 µL/min with a 3 min association phase and 20 min dissociation phase. The sensor chip surface was regenerated between each run by an 800 s injection of 300 mM EDTA, pH 8.5 (BioRad) at a flow rate of 30 µL/min. Binding kinetics were analyzed using the ProteOn data analysis software. Double referencing was performed and, unless noted otherwise, a 1:1 Langmuir binding model was utilized to fit the data. Some CD73 variants containing mutations within the amino acid region 171-188 fit poorly to a 1:1 model (i.e., Chi² values >10% of Rmax). Where noted, these variants were fit with a heterogenous antigen (2:1) model. […] Due to the assay format (antigen immobilized) and the dimeric state of CD73, KD values may be exaggerated due to avidity effects. However, it is not anticipated that this impacts ranking of MEDI9447 binding to the different CD73 variants.
# [2] = molecular target: T2, HDX_E2 CD73 chimera; test: SPR (ProteOn), CD73 variant immobilized; 2:1 fit
# Method: as §1
# [3] = molecular target: T3, Human CD73 on cells (MDA-MB-231, Jurkat …); test: cell-based or functional assay
# [4] = molecular target: T4, Murine CD73 on cells (4T1, Jurkat mCD73 …); test: cell-based or functional assay
binder,measurement,setting,value
"MEDI9447 (antibody, human IgG1, lambda, V domains shown, Human IgG1-TM (L234F, L235E, P331S), lambda light chain; also called clone 10.3 antibody; 73combo3) VH: EVQLLESGGGLVQPGGSLRLSCAASGFTFSSYAYSWVRQAPGKGLEWVSAISGSGGRTYYADSVKGRFTISRDNSKNTLYLQMNSLRAEDTAVYYCARLGYGRVDEWGRGTLVTVSS VL: QSVLTQPPSASGTPGQRVTISCSGSLSNIGRNPVNWYQQLPGTAPKLLIYLDNLRLSGVPDRFSGSKSGTSASLAISGLQSEDEADYYCATWDDSHPGWTFGGGTKLTVLG",Kd,[1],4.43 nM
same,koff,[1],0.0211 s⁻¹
same,kon,[1],4.76e+06 M⁻¹ s⁻¹
same,Kd,[2],2.83 nM
same,koff,[2],0.0162 s⁻¹
same,kon,[2],5.73e+06 M⁻¹ s⁻¹
same,"FabZAP internalization, EC50, MDA-MB-231",[3],0.0035 nM
same,"FabZAP internalization, EC50, 4T1",[4],0.0185 nM
